In US20250368754A1:

Target: human LTβR on A375 cells (human) (UniProt P36941)
Assay: cell-based or functional assay

Sequence of human LTβR on A375 cells (human) (P36941 31-435): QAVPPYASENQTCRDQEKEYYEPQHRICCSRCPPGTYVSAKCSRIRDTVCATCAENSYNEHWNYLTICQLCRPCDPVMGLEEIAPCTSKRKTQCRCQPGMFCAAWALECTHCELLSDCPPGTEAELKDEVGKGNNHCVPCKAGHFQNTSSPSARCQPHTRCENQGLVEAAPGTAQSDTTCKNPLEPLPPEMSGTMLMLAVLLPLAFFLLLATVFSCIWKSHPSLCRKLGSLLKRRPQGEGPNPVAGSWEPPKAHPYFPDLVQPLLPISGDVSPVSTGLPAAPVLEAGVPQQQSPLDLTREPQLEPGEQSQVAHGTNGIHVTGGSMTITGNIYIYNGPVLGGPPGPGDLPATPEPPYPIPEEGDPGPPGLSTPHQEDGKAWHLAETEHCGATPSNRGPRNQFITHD

IL-8 secretion of A375 cells, EC50 (FIG. 15a): 226 pM
IL-8 secretion of A375 cells, EC50 (FIG. 15b): 190 pM
Substance: recombinant human LIGHT (R&D systems) (from UniProt O43557 74-240) (ligand)
